Consider 50 sequences from the supplement of paper PMC9112550, “Optimization of the antimicrobial peptide Bac7 by deep mutational scanning” (BMC Biology, 2022).

The series has as its system Escherichia coli TOP10. The series is described as follows: shrunken log2 fold change of peptide-encoding DNA abundance (4.5 h post-induction vs induction); higher = less antimicrobial activity (less host growth inhibition). The settings on record: time post-induction: 4.5 h; library: site-saturation at positions 5, 18, 19, 20.
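Further: peptides expressed intracellularly from a pBAD plasmid library in pooled LB shake-flask culture, induced with 0.3% L-arabinose, DNA abundance read by NGS, three biological replicates, DESeq2 with apeglm shrinkage.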

On to RRIRMRPPRLPRPRPRPAVDPRP, for which the “shrunken log2 fold change” value was found to be 0.154.

As for RRIRERPPRLPRPRPRPIIFPRP, the “shrunken log2 fold change” value is -0.352.

In the case of RRIRGRPPRLPRPRPRPFSCPRP, the “shrunken log2 fold change” value was -0.262.

Turning to RRIRTRPPRLPRPRPRPDVNPRP, the “shrunken log2 fold change” value is 0.21.

Take RRIRTRPPRLPRPRPRPSFFPRP: the “shrunken log2 fold change” value was -0.256.

On to RRIRGRPPRLPRPRPRPNCWPRP, for which the “shrunken log2 fold change” value is 0.303.

With RRIRYRPPRLPRPRPRPKINPRP, the “shrunken log2 fold change” value was -0.902.

In the case of RRIRKRPPRLPRPRPRPVGMPRP, the “shrunken log2 fold change” value is 0.554.

With RRIRHRPPRLPRPRPRPEDNPRP, the “shrunken log2 fold change” value is -0.0032.

Regarding RRIRNRPPRLPRPRPRPFCAPRP, the “shrunken log2 fold change” value was -0.0161.

As to RRIRCRPPRLPRPRPRPHCNPRP, the “shrunken log2 fold change” value is -0.395.

As for RRIRKRPPRLPRPRPRPVKTPRP, the “shrunken log2 fold change” value was determined as 0.141.

For RRIRSRPPRLPRPRPRPTRTPRP, the “shrunken log2 fold change” value was 0.386.

For the sequence RRIRMRPPRLPRPRPRPMQLPRP, the “shrunken log2 fold change” value was 0.33.

In the case of RRIRLRPPRLPRPRPRPKTDPRP, the “shrunken log2 fold change” value is -0.233.

In the case of RRIRYRPPRLPRPRPRPNYNPRP, the “shrunken log2 fold change” value is -1.43.

Consider RRIRYRPPRLPRPRPRPLWPPRP, for which the “shrunken log2 fold change” value was -0.135.

Turning to RRIRMRPPRLPRPRPRPVRLPRP, the “shrunken log2 fold change” value was found to be 0.116.

With RRIRVRPPRLPRPRPRPLPNPRP, the “shrunken log2 fold change” value was -0.0957.

On to RRIRRRPPRLPRPRPRPALMPRP, for which the “shrunken log2 fold change” value stood at 0.195.

In the case of RRIRRRPPRLPRPRPRPGIKPRP, the “shrunken log2 fold change” value is -0.291.

For the sequence RRIRPRPPRLPRPRPRPMTVPRP, the “shrunken log2 fold change” value was -0.038.

As for RRIRNRPPRLPRPRPRPSDGPRP, the “shrunken log2 fold change” value came out at 0.0337.

For RRIRVRPPRLPRPRPRPLTLPRP, the “shrunken log2 fold change” value was -0.416.

Take RRIRMRPPRLPRPRPRPVYWPRP: the “shrunken log2 fold change” value amounted to 0.0687.

As to RRIRTRPPRLPRPRPRPRTPPRP, the “shrunken log2 fold change” value was 0.138.

Turning to RRIRTRPPRLPRPRPRPQNTPRP, the “shrunken log2 fold change” value is -0.622.

For the sequence RRIRWRPPRLPRPRPRPDPYPRP, the “shrunken log2 fold change” value was -0.198.

Turning to RRIRWRPPRLPRPRPRPEVYPRP, the “shrunken log2 fold change” value was -0.0423.

With RRIRKRPPRLPRPRPRPCLLPRP, the “shrunken log2 fold change” value was -0.037.

Regarding RRIRIRPPRLPRPRPRPFMGPRP, the “shrunken log2 fold change” value is -0.438.

RRIRMRPPRLPRPRPRPSCQPRP: the “shrunken log2 fold change” value was 0.166.

RRIRIRPPRLPRPRPRPWRHPRP: the “shrunken log2 fold change” value was -0.083.

RRIRRRPPRLPRPRPRPWCHPRP: the “shrunken log2 fold change” value was -0.0754.

On to RRIRWRPPRLPRPRPRPLTLPRP, for which the “shrunken log2 fold change” value is -0.00729.

With RRIRLRPPRLPRPRPRPDTQPRP, the “shrunken log2 fold change” value is 0.0809.

For RRIRERPPRLPRPRPRPARTPRP, the “shrunken log2 fold change” value is 0.0417.

For the sequence RRIRKRPPRLPRPRPRPWHCPRP, the “shrunken log2 fold change” value came out at 0.0258.

For RRIRYRPPRLPRPRPRPWAEPRP, the “shrunken log2 fold change” value came out at 0.0276.

As for RRIRYRPPRLPRPRPRPQGNPRP, the “shrunken log2 fold change” value is -0.0344.

As for RRIRTRPPRLPRPRPRPPRAPRP, the “shrunken log2 fold change” value worked out at 0.786.

As for RRIRDRPPRLPRPRPRPQDIPRP, the “shrunken log2 fold change” value is -0.00598.

In the case of RRIRDRPPRLPRPRPRPTDLPRP, the “shrunken log2 fold change” value is -0.0718.

Turning to RRIRPRPPRLPRPRPRPPYAPRP, the “shrunken log2 fold change” value turned out to be 0.193.

Take RRIRKRPPRLPRPRPRPKECPRP: the “shrunken log2 fold change” value was found to be 0.121.

As for RRIRMRPPRLPRPRPRPWGSPRP, the “shrunken log2 fold change” value was 0.0578.

For RRIRKRPPRLPRPRPRPMYWPRP, the “shrunken log2 fold change” value is -0.111.

With RRIRIRPPRLPRPRPRPELNPRP, the “shrunken log2 fold change” value turned out to be 0.12.

RRIRARPPRLPRPRPRPNLYPRP: the “shrunken log2 fold change” value was -0.345.

As for RRIRLRPPRLPRPRPRPIHQPRP, the “shrunken log2 fold change” value worked out at 0.0518.
